Columns and labels:
[1] = target: T1, P/A #1 sequence; test: ELISA and SPR with Fabs
T1 construct: in sentences on specificity it stands for P/A #1 polypeptides in general
T1 peptide: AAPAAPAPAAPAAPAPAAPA

[2] = target: T2, PAS #1(600)-Leptin; test: ELISA, antigen coated, Fab titrated
T2 chain: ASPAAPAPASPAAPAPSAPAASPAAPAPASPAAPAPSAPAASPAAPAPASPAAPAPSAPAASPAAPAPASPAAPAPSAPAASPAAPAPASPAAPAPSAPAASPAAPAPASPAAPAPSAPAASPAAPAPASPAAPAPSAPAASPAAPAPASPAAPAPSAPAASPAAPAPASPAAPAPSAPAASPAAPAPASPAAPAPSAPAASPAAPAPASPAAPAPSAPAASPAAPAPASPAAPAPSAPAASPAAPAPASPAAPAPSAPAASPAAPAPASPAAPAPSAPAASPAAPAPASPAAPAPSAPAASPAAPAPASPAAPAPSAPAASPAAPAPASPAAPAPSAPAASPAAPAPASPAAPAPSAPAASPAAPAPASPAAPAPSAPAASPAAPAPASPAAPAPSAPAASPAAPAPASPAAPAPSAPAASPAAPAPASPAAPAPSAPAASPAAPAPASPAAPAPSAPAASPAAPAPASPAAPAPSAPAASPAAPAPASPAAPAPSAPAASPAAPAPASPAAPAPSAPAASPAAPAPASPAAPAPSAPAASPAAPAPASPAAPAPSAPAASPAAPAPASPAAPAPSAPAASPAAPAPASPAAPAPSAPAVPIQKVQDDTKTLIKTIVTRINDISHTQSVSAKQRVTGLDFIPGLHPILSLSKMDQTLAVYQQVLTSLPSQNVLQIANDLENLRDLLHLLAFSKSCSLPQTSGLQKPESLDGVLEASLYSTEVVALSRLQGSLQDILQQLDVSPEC

[3] = target: P/A#1(600)-GMCSF; test: ELISA, Fab titrated on P/A#1(600)-GMCSF
[4] = target: T3, PAS #1(200)-IL1Ra; test: SPR, biotinylated antigen on CAPture chip, Fab as analyte, 1:1 model
T3 construct: PASylated fusion protein produced in E. coli; Biotinylated for the SPR measurements with Fabs

[5] = target: IL1Ra-PAS#1(800); test: ELISA, Fab titrated on IL1Ra-PAS#1(800) (x axis: Fab concentration)
[6] = target: T2, PAS #1(600)-Leptin; test: ELISA, Fab titrated on PAS#1(600)-Leptin (x axis: Fab concentration)
[7] = target: T4, StrepII-eGFP-PAS #1(200); test: affinity chromatography on Fab coupled to a 1 ml HiTrap NHS column, elution with 1 M L-prolinamide; A280/A488 traces and SDS-PAGE of the fractions
T4 construct: also called StrepII-eGFP-PAS #1(200) fusion protein

[8] = target: T5, H1GA-PAS #1(200)-His6; test: affinity chromatography of a periplasmic extract on Fab coupled to a 1 ml HiTrap column, elution with 1 M L-prolinamide; blank-corrected A280 trace and SDS-PAGE [B]
T5 construct: also called C-terminally PASylated Anticalin H1GA-PAS #1(200)-His6
T5 chain: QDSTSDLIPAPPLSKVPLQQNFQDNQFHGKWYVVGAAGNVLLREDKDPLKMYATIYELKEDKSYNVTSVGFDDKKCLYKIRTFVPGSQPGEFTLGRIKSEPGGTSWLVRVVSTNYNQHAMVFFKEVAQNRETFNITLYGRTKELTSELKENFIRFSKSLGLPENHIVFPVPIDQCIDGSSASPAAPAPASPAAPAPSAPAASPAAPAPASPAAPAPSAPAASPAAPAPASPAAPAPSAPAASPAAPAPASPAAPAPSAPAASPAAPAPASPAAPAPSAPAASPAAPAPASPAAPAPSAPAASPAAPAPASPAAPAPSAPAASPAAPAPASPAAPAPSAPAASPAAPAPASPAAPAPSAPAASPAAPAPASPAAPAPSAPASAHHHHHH

[9] = target: T1, P/A #1 sequence; test: SPOT peptide array / hybridoma screening
[10] = target: T6, IL1Ra (Kineret/Anakinra) (UniProt P18510 26-177); test: western blot, hybridoma supernatant 1:2000
T6 construct: Commercial drug product; also called non-PASylated protein version

[11] = target: T7, hu4D5-PAS #1(200); test: MAb capture ELISA, hybridoma supernatant on anti-mouse IgG Fc, antigen titrated
T7 construct: Detected with anti-human kappa light chain antibody in the capture ELISA

[12] = target: T8, P/A #1(200)-IL1Ra; test: Western blot of the fusion protein after SDS-PAGE; anti-mouse IgG Fc-AP, BCIP/NBT [G]
T8 construct: PASylated fusion protein produced in E. coli; Biotinylated for the SPR measurements with Fabs

[13] = target: T3, PAS #1(200)-IL1Ra; test: SPR, MAb from hybridoma supernatant captured by anti-mouse antibody, antigen as analyte, bivalent analyte model
[14] = target: T7, hu4D5-PAS #1(200); test: MAb capture ELISA: MAb from hybridoma supernatant captured by anti-mouse IgG Fc, hu4D5-PAS#1(200) titrated (x axis: antigen concentration)
[15] = target: T9, PASylated Thymosin alpha 1; test: sandwich ELISA in diluted rat plasma: MAb 2.1 coated as capture antibody, MAb 1.2-alkaline phosphatase as detection reagent; calibration curve
T9 construct: also called PASylated Tα1
T9 chain: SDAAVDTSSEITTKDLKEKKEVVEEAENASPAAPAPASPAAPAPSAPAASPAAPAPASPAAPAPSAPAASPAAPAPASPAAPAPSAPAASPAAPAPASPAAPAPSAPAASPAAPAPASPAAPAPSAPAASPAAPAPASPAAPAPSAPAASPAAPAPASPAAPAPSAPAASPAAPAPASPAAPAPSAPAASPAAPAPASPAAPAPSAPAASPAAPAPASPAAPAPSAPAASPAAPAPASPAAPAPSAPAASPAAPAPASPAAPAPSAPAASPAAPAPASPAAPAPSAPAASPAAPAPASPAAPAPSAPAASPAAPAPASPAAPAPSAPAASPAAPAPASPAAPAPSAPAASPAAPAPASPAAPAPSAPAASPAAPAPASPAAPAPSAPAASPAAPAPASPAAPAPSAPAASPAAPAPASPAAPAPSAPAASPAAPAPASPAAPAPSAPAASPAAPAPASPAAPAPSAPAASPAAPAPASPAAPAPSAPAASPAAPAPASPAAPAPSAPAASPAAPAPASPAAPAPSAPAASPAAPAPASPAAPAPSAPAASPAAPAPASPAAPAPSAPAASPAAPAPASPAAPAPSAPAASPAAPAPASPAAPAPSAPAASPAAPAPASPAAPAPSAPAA

[16] = target: T10, APSA(200)-IL1Ra; test: ELISA, antigen coated, Fab titrated
T10 construct: Fusion protein produced in E. coli; Labelled with DIG-NHS in the MAb capture ELISA

[17] = target: T10, APSA(200)-IL1Ra; test: ELISA, Fab titrated on coated APSA(200)-IL1Ra
[18] = target: T11, Pga-APSAAPSAAPSA (N-terminal pyroglutamyl residue (Pga), counted as P1 in the structure); test: co-crystal structure of the recombinant Fab with the peptide
T11 construct: Peptide ligand co-crystallised with the Fab of MAb 3.1; also called Pga-(APSA)3 peptide; (APSA)3 peptide
T11 peptide: APSAAPSAAPSA

[19] = target: T12, APSA(200)-TrxA; test: SPR, biotinylated antigen on CAPture chip, Fab as analyte, 1:1 model
T12 construct: Biotinylated and immobilised on a biotin CAPture chip; also called thioredoxinA-APSA(200)

T8 sequence (chain, as listed by the source limits assumed): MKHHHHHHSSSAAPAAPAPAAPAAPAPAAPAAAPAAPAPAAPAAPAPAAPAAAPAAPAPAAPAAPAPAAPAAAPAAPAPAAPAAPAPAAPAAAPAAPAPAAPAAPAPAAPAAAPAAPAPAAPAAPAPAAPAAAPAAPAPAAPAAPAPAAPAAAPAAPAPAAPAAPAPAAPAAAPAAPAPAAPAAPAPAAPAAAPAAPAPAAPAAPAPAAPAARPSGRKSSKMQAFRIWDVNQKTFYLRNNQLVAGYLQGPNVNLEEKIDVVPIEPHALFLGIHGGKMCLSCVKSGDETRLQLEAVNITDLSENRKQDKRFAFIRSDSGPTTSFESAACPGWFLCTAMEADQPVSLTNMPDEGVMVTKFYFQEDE
T6 sequence (P18510 26-177 limits assumed): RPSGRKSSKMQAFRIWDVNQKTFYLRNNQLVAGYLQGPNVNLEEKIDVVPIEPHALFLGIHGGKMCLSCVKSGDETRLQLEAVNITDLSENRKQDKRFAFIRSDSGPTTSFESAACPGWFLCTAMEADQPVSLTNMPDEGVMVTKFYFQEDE

B1: Fab fragment of Anti-PA(S) MAb 1.2 (Fab, V domains shown)
VH: QVQLVESGGGLVQPGGSLKLSCAASGFTFSSYGMSWVRQTPDKRLELVATINSNGGSTYYLDSVKGRFTISRDKAKNTLYLQMSSLKSEDTAMYYCVRGGSIYDGYDYAMDYWGQGTSVTVSS
VL: DIVLTQSPASLAVSLGQRATISCRASQSVSTSSYSYMHWFQQKPGQPPKLLIKYASNLESGVPARFSGSGSGTDFTLNIHPVEEEDTATYYCQHSWEIPLTFGAGTKLELKR
notes: also called Anti-PA(S) MAb 1.2 Fab; anti-PAS Fab 1.2
For B1, the binding result [1] was “no binding”, the Kd [2] was 123 nM and the binding result [3] was “no binding (tested: 4000 nM)”. The Kd [4] was 3700 nM, the “EC50 (read off the curve)” value [5] was roughly 200 nM and the “EC50 (read off the curve)” value [6] was roughly 100 nM. B1: binds [7]; binds [8].

B2: Anti-PA(S) MAb 1.2 (antibody, V domains shown)
VH: B1 VH
VL: B1 VL
notes: Mouse monoclonal IgG from hybridoma (culture supernatant); alkaline phosphatase conjugate in the thymosin sandwich ELISA
B2 was tested, and the binding result [9] was “no binding”, the binding result [10] was “no binding” and the Kd [11] was 0.162 nM. For the same binder, the binding result [12] was “no binding (tested: hybridoma supernatant diluted 1:2000)”, the Kd [13] was 44 nM and the “EC50 (read off the curve)” value [14] was roughly 0.2 nM. B2: binds [15].

B3: Fab fragment of Anti-PA(S) MAb 3.1 (Fab, V domains shown)
VH: QVQLQQSGAELVRPGASVKLSCKALGYIFTDYEMHWVKQTPVHGLEWIGVIHPGSGNTVYNQKFQGKATLTADKSSSTAYMEVSSLTSEDSAVYYCNLWGRWGQGTTLTVSS
VL: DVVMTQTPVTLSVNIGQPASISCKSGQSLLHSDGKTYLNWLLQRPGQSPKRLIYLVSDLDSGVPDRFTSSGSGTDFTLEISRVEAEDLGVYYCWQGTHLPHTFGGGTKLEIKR
notes: also called Anti-PA(S) MAb 3.1 Fab; anti-APSA antibody fragment
With B3 the Kd [16] was 1.9 nM, the “EC50 (read off the curve)” value [17] was roughly 2 nM and the binding result [18] was “binds”. For the same binder, the Kd [19] was 2.5 nM.
